Where two headings read alike, the source gives them in different places.
Key:
Assay in all cases: fluorescence polarization
[1] = molecular target: T1, DNMT3B Δ214 (3BΔ214);DNMT3L CLD (3L) (human;human?, UniProt Q9UBC3;Q9UJW3 215-853;179-379, |)
DNMT3B PWWP K268A = DNMT3B PWWP K268A (human, UniProt Q9UBC3 206-355, K268A)
DNMT3B PWWP domain = DNMT3B PWWP domain (human, UniProt Q9UBC3 206-355)
[2] = molecular target: T1, DNMT3B Δ214 (3BΔ214);DNMT3L CLD (3L); remark: listed apart in the source
[3] = molecular target: T1, DNMT3B Δ214 (3BΔ214);DNMT3L CLD (3L); remark: listed apart in the source
[4] = molecular target: T1, DNMT3B Δ214 (3BΔ214);DNMT3L CLD (3L); remark: listed apart in the source
[5] = molecular target: T1, DNMT3B Δ214 (3BΔ214);DNMT3L CLD (3L); remark: listed apart in the source

T1 sequence (Q9UJW3 179-379, stated change not applied, chain 2 of 2, other chains not shown): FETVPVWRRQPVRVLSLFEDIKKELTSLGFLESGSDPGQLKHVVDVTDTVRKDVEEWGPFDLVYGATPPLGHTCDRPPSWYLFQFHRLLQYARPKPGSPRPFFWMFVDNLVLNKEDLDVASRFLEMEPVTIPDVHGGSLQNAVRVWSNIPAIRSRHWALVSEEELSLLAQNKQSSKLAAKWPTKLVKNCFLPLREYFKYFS

B1: 30-bp FAM dsDNA (dsDNA)
DNA 1: CTGAATACTACTTGCGCTCTCTAACCTGAT
DNA 2: ATCAGGTTAGAGAGCGCAAGTAGTATTCAG
Work on B1 yielded a Kd [1] of 3.51 ± 0.28 µM, a Kd (DNMT3B PWWP K268A) of 24.3 ± 2 µM and a Kd (DNMT3B PWWP domain) of 9.12 ± 0.67 µM. It also gave a Kd [2] of 2.34 ± 0.15 µM, a Kd [3] of 0.85 ± 0.07 µM and a Kd [4] of 3.5 ± 0.3 µM. The Kd [5] was 1.39 ± 0.12 µM.

— publication PMC11939060
